From the DeepSol protein solubility set come the findings set out here.

The data set can be described thus: soluble on expression in E. coli; label from the status in PepcDB or PDB records.
In the case of “SNAIIAGETSIPSQGENMPAYHARPKNADGPLPIVIVVQEIFGVHEHIRDLCRRLAQEGYLAIAPELYFRQGDPNEYHDIPTLFKELVSKVPDAQVLADLDHVASWAARHGGDAHRLLITGFCWGGRITWLYAAHNPQLKAAVAWYGKLVGEKSLNSPKHPVDIAVDLNAPVLGLYGAKDASIPQDTVETMRQALRAANATAEIVVYPEADHAFNADYRASYHEESAKDGWQRMLAWFAQY”, the “soluble on expression in E. coli” value is recorded as “soluble”.
As for “RAIGQIRSADGGRTVDVDLAQPLHDWRVLFNNLLPSHVLRGGDSDFSTVLADGIPASAGRYSFAGVDRQRGIVTLNRNDRFWGEKPATVENIKFREVTDIAQGRELLRTGQIKFLDITPTEVAREAFELMPNTQVRTTTTSLNLQLIANTHLTLEQRADLQSLIDVHTVARIAMGRSTDLGVGDQPYEPHADHLMSLGRPVRIGVDPSDPEAQMAARVLSDVLARKSVKTQLVETDTTDLIGSK”, the entry is “not soluble”; as for “MAHHHHHHMTSTLTNSNRINIPAVCRLRERNTNKTVGSGVLVAQGLLLTSATAIPTQSRATHIVATFFEGTKKSAVDVQLQPQRYYFASRYPPEMDYCLISCEEAPLLNVTPVHMALTGKGWAPVEEGDVVLIVEHPIGDVAGTAAVPLDGKATFSSTLSATGDGDFDSVRAPYTEQKRFEEVLRCRGNVSFLKSNGSWRTAGCPAFNEHGQLVGLQSQSRADGEGVVNRILSLISIVKHLFANVQLPHLPQEDVTFEDVWDTWYVTNDITRILAILANFKGKSMAQQVTWRLCELTAKPQLVKSIASNGGIEVILQNLSLFSSDEKLSESGLRALWNVSIGEEAHLATIIKKEGVQTILDVVESFPANETVLEFGAVLLHNIAGCRAAPNFSEAHGARALKALYPGFQQFRESVVLQKFALSFFATLARLNEDFARDLVQQHVIEHITHLVEEKPKQIFLMEIVVGFVAELAQYPQTVELMCSNTPQYAAASMSYLIDLLIHIILEYKDLDSLLVSGNRALWGLGNVPTCRGIILENPRGIDALRISLPPLIASTHR”, “soluble”.
With “MSFDREEDQKLKFKTSKKLKVSSTFESMNLKDDLLRGIYSYGFEAPSSIQSRAITQIISGKDVIAQAQSGTGKTATFTIGLLQAIDLRKKDLQALILSPTRELASQIGQVVKNLGDYMNVNAFAITGGKTLKDDLKKMQKHGCQAVSGTPGRVLDMIKKQMLQTRNVQMLVLDEADELLSETLGFKQQIYDIFAKLPKNCQVVVVSATMNKDILEVTRKFMNDPVKILVKRDEISLEGIKQYVVNVDKEEWKFDTLCDIYDSLTITQCVIFCNTKKKVDWLSQRLIQSNFAVVSMHGDMKQEERDKVMNDFRTGHSRVLISTDVWARGIDVQQVSLVINYDLPEIIENYIHRIGRSGRFGRKGVAINFITKADLAKLREIEKFYSIKINPMPANFAELS”, the “soluble on expression in E. coli” value is given as “soluble”.
Then “MGSDKIHHHHHHVPSGNGDNPATGARGGNMEISFLVPNSSNGSRAASAEDSGVYEDGTAEEYKVSNVTLYLFDSSSKNLVTTINVTQSDLGAGTSSGESSKEGQTIVYPCNKEITVKPGNYDILAVANGSQTFEIGQESTLLGQIDASTYGNGMITSVPGSGFIMSNRGSANMNITVESPEESDTKTQVRINLERAVAKLMVRNDSKEIYTLKNPAGVTYATVRLNNYKFINLANKFYTFRHVATLDNAPETPSAPSSYSVEAGNFGNIADNNGYLIDPYFFDKTVAGATTNFTGGSFYTNHLSKQTDSNWSGLADAGKYVSMYCLENCMFRPAQNTVYTTGIMLKGTFTPEASQTIGNNGNPVEDPLVFNTLYYFNYKFYTTLAAVGKYGDANIDGLTEESSDAELAAKQITRFTKNGGNFSTFYNYWIKHLDNNNPTVMGVMEFGIVRNNIYSVNITSIKNLGPGTPDTKPDPDENKAFLDVEFGVYPWIVRDQDADLE”, with “not soluble”; and “GMMTDEARAKLAAIPMLAGYTGPLERLGGLTNLVFRAGDLCLRIPGKGTEEYINRANEAVAAREAAKAGVSPEVLHVDPATGVMVTRYIAGAQTMSPEKFKTRPGSPARAGEAFRKLHGSGAVFPFRFELFAMIDDYLKVLSTKNVTLPAGYHDVVREAGGVRSALAAHPLPLAACHCDPLCENFLDTGERMWIVDWEYSGMNDPLWDLGDLSVEGKFNANQDEELMRAYFGGEARPAERGRVVIYKAMCDLLWTLWGLIQLANDNPVDDFRAYADGRFARCKALMETPEFSRHLAAVRMG”, with “soluble”; and “MSAESERKTETIPEWKQEEVDAIVEMIESYESVGVVNIAGIPSRQLQDMRRDLHGTAELRVSRNTLLERALDDVDDGLEDLNGYITGQVGLIGTDDNPFSLFQELEASKTPAPIGAGEVAPNDIVIPEGDTGVDPGPFVGELQSVGADARIQEGSIQVLSDSTVLDTGEEVSQELSNVLNELGIEPKEVGLDLRAVFADGVLFEPEELELDIDEYRSDIQAAAGRAFNLSVNADYPTATTAPTMLQSDRGNAKSLALQAAIEDPEVVPDLVSKADAQVRALASQIDDEEALPEELQGVEADVATEEPTDDQDDDTASEDDADADDAAEEADDDDDDDEDAGDALGAMF”, with “soluble”.
As for “MEGGKLQSTFVFEEIGRRLKDIGPEVVKKVNAVFEWHITKGGNIGAKWTIDLKSGSGKVYQGPAKGAADTTIILSDEDFMEVVLGKLDPQKAFFSGRLKARGNIMLSQKLQMILKDYAKL”, the entry is “soluble”.
Turning to “MGSDKIHHHHHHMDLEIATVKAILTEHDLLKEIKSTKTVANTGISYDSRTVKPGYMFFCKGNFKPEYLSVARQNGATTYVSENEYPEGTGMTAIIVTNVTRAMAVLSATYYNFPQNDLFIIGITGTKGKTSSAYFAHSILNQKYPNQVALFSTIDRIVGPKPEDQFKSDLTTPESMNLFHDMRVAVDNGMKYLVMEVSSQAYLRDRVYGLKFDCGIFLNITPDHIGRNEHKDFEDYLHCKLQLMVNSKRCIIDADTDRFDDVFGAAKATTDPEQIYLFSADVENGGVDFLIQDEEDDLTSNRFTLVESSSKAEAFHVAGDYDLNVAGDYNQSNATAAIIAAALADVTYQDAVLPLKSIVIPGRMEHLNVPGHGVVFVDYAHNYASLHALLKFLKHQYHDGKVIVVVGSPGDKGISRRAGFGQALSEQADIAYLTTDDPAFEDPEQIIQQIMDNIKPGTVEVRQVLDRHDAIEQAIMNSSEKDVVVLAGKGEDPYQKVGGVDTPWPTDMGVAEEVKRGLS”, the “soluble on expression in E. coli” value was “not soluble”.
Take “DIQMTQSPSSLSASVGDRVTITCRSSQSLVHNNANTYLHWYQQKPGKAPKLLIYKVSNRFSGVPSRFSGSGSGTDFTLTISSLQPEDFATYYCSQNTLVPWTFGQGTKVEIKRTVAAPSVFIFPPSDEQLKSGTASVVCLLNNFYPREAKVQWKVDNALQSGNSQESVTEQDSKDSTYSLSSTLTLSKADYEKHKVYACEVTHQGLSSPVTKSFNRGEC”: the “soluble on expression in E. coli” value is listed as “soluble”.
Regarding “GQPMNVTLQDDTQTLQEVVVTALGMKRATKALGYAVTEIKSDELNSNVVNPVSALQGKVAGVEISAGDGGLFGSSKILIRGASTLGSNNQPIYVVDGVILDNAIKNGDADWAANDTDWGNELKNLNPDDFESVSVLKGAAATALYGSRGLNGAVVITTKSGKGKK”, the “soluble on expression in E. coli” value is “not soluble”.
As for “MHEWALADAIVRTVLDYAQREGASRVKAVRVVLGELQDVAEDIVKFAMEQLFAGTIAEGAEIEFVEEEAVFKCRNCNYEWKLKEVKDKFDERIKEDIHFIPEVVHAFLACPKCGSHDFEVVKGRGVYVAGIKIEKEGGS”, the entry is “soluble”; as for “MSLILFFYFMVLSEACMRTVAPEDVYISSTFPFEDFTTEAVVTTDSSTISQLTTETTMETVETHIFYVTCKNRYPISNRNCLINRHTDDFFCFILPVDACMRTVPPEDVYISITLPYEDFTTESNEIAVTTDSSTVPQLVTETTEIPTATTTPGWSSKTELHWKISKILNTK”, “not soluble”; as for “MSLRAGTEETERGHTALTVEGIGRRRGSEERETPERGDKEEGKEQVKRETAGGTRSSSPQKQRGKSTTRRLSVAGLSSERTQSNFEIHRELEDQTDDAMSGAGGIDCSMSGTTATVVLHIHALKKLFVAHVGDSRAVIARREHASSRAVAGGSDGFRQETRNDSRMLQQQTSSEPRETAEDRGCRSAGTGTDCRPLSRLMAFDLTNDHKPTNEIEKQRIMKAGGQVRRLEGDVPHRVFLKNRLFPGLAMSRAIGDTIATQAGVIPDPEVRGYQQSQSDEGHHHHHH”, “soluble”.
Take “MSLDMKEWEIFYNKIMEDFGFDKDKDVESAVILNNILENANTIPVDKLKDIIEGREVFIFGAGPSIKKHINILKELREINYKNPIIVADGACKAFLEENIIPDIIVSDLDGDLEALFECNRKGSIIVVHAHGDNIEKIKKYVPKLKNVVGSCQIPNYKELNLRNVINFGGFTDGDRCCFLAYHFKAKKLILGGMDFGIYITKYSRPNIKEDIAIGDEIKIKKLEYAKTLINYLKDKIEIEFLKEGHHHHHH”: the “soluble on expression in E. coli” value is “soluble”.
Regarding “MGGSHHHHHHGMASALAPKQDPKPKFQEGERVLCFHGPLLYEAKCVKVAIKDKQVKYFIHYSGWNKNWDEWVPESRVLKYVDTNLQKQRELQKANQEQYAEGKMRGAAPGKKTSGLQQKNVEVKTKKNKQKTPGNGDGGSTSETPQPPRKKRARVDPTVENEETFMNRVEVKVKIPEELKPWLVDDWDLITRQKQLFYLPAKKNVDSILEDYANYKKSRGNTDNKEYAVNEVVAGIKEYFNVMLGTQLLYKFERPQYAEILADHPDAPMSQVYGAPHLLRLFVRIGAMLAYTPLDEKSLALLLNYLHDFLKYLAKNSATLFSASDYEVAPPEYHRKAV”, the “soluble on expression in E. coli” value was “not soluble”.
For “MSLNKTFTVEKANRFIAENKHLVNTQYKPEEHFSAEIGWINDPNGFVYFRGEYHLFYQFYPYDSVWGPMHWGHAKSKDLVTWEHLPVALAPDQDYDRNGCFSGSAIVKDDRLWLMYTGHIEEKTGVRQVQNMAFSDDGIHFEKISQNPVATGSDLPDELIAADFRDPKLFEKDGRYYSVVAAKHKNNVGCIVLLGSDNLVEWQFESIFLKGVEHQGFMWECPDYFELDGKDCLIMSPMRYQREGDSYHNINSSLLFTGKVDWGEKCFIPESVQEIDHGQDFYAPQTLLDDQNRRILIAWMQTWGRTLPTHDQEHKWACAMTLPRILRLEDGKLRQFPVKKGQYQIQIDKDCHYHLGNDTDYLEFGYDSNVQQVYIDRSHLIQKILGEEEQDTSRRYVDIEAKELEVVLDKNSIEIFVNQGEASLTATYYLTVPAELSRIDEGHHHHHH”, the “soluble on expression in E. coli” value was “soluble”.
As for “MGSDKIHHHHHHMKKTIILSDENYYSQEADLAYMSVSQYKKFLECEAAALAKLKGEWTPENDPKALLVGNYVHSYFESPEIHEAFKEENKSKMFSSRKPFGLLKDFQIAEQMIERLKQEEAFLNIYQGEKEVIVTGEIGGAMWKGKIDCLNLEEKYFVDIKTTKDMHEKKWDERLNRKANFIERFGYVLQMAVYCELLRQQYDKIFLPLIAAVSKQTPSEAKLITLSEEKMIYELEELKENIEHVVRVKNGEEEPVSCGICEYCRGHNKITNFTSMDDL”, the entry is “not soluble”; as for “MTKKSTIQPCLVCGQSSNSILFGAPSCRACGEFFRRKVISNFKIKNNCLGECSFAKKSMKPCQSCRFQKCLEAGMLEKMVFSRKAIYSISNFEKSILEELEEAYSKLEHGRNETFNPKSDSNPKFCSHEELNNTCTIDIQIILDNLISYFQAKKPMGKEQDDVLKMHFIVPFVLFDTAFRAIGKSSYISPDGTMFGGSYVEKLYQDSSNSKIGVNNGKTSREIMESYWKVSYKILKSEMELLQLDRSEFLLLSALIYWDFGLENQSDKCCENCNTIREKVLKELVKYERKKSGQNALRIAMIMGLLQAVPKALDVMKTCGFLSKIYNLRGSGCPLYAISTNSPPQ”, “not soluble”.
